Laboratory results published in paper PMC4609988 (Scientific Reports, 2015).
Positions count from the first letter of the chain named.

What was measured:
Fc-Ang1 = molecular target: T1, Fc-Ang1 (human); test: non-reducing SDS-PAGE; proteins taken from the media of transfected HEK293 cells with streptactin sepharose, SDS-PAGE under non-reduced (NR) and reduced (R) conditions, immunoblot with anti-Ang1 antibody; disulfide-linked oligomers; settings: both partners purified
T1 chain: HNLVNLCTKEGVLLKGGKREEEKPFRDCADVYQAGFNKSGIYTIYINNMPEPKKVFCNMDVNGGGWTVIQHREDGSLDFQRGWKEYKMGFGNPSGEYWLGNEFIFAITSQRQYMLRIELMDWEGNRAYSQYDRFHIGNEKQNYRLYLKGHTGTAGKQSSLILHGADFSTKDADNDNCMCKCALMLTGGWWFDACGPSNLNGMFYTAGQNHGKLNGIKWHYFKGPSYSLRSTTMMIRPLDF

GCN-Ang1 = GCN-Ang1 ( | human); test: as above; settings: both partners purified
[1] = molecular target: the molecule itself; test: as above
CMP-Ang1-2 = molecular target: T2, CMP-Ang1-2 (human); test: negative-stain transmission electron microscopy; purified proteins on carbon-coated copper grids, stained with 0.75% uranyl formate, 120 kV; settings: both partners purified
T2 chain: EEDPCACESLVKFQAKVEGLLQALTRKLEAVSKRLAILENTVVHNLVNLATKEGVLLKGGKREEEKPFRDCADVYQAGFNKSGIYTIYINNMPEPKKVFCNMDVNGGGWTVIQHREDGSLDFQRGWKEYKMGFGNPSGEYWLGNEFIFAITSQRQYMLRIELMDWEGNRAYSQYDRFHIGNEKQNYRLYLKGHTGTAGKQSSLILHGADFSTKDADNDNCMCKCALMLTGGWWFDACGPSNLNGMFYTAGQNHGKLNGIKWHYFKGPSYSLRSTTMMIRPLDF

COMP-Ang1 = molecular target: T3, COMP-Ang1 ( | human); test: non-reducing SDS-PAGE; proteins taken from the media of transfected HEK293 cells with streptactin sepharose, SDS-PAGE under non-reduced (NR) and reduced (R) conditions, immunoblot with anti-Ang1 antibody; disulfide-linked oligomers; settings: both partners purified
T3 chain: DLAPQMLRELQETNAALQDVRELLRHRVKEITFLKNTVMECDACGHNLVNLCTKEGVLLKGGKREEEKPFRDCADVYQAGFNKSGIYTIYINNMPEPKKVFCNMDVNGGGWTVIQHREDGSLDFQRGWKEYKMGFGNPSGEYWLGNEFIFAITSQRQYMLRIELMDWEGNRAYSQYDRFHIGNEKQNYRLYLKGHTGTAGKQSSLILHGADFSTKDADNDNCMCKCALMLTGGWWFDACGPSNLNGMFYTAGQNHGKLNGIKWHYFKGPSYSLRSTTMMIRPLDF

B1: Fc-Ang1 (Fc fusion)
chain: T1 chain
modifications: dimerized through N-terminal human IgG1 Fc; N-glycan at Ang1 Asn295 / dimerized through N-terminal human IgG1 Fc; N-glycan at Ang1 Asn295
- stoichiometry N (Fc-Ang1): 2

B2: GCN-Ang1 (ligand)
chain: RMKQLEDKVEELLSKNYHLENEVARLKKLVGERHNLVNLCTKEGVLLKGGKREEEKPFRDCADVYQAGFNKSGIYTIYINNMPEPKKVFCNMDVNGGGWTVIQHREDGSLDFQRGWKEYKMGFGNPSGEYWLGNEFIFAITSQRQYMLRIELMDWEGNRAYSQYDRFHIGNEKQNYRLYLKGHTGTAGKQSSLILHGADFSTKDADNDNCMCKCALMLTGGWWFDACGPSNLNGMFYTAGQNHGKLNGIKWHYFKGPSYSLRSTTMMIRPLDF
modifications: N-glycan at Ang1 Asn295 / N-glycan at Ang1 Asn295
- stoichiometry N (GCN-Ang1): 2

B3: CMP-Ang1-3 (dimeric CMP-Ang1), produced in HEK293 cells (ligand)
chain: T2 chain with C5A
modifications: N-glycan at asparagine 106 (complex tri- (~57%) or tetra- (~25%) antennary type glycans with one or two fucose residues)
- stoichiometry N [1]: 2

B4: CMP-Ang1-2 (ligand)
chain: T2 chain
modifications: inter-chain disulfides; N-glycan at Ang1 Asn295 (construct Asn106) / inter-chain disulfides; N-glycan at Ang1 Asn295 (construct Asn106)
- stoichiometry N (CMP-Ang1-2): 3

B5: COMP-Ang1 (ligand)
chain: T3 chain
modifications: inter-chain disulfides; N-glycan at Ang1 Asn295 (construct Asn109) / inter-chain disulfides; N-glycan at Ang1 Asn295 (construct Asn109)
- stoichiometry N (COMP-Ang1): 5
